Test results: US20240000961A1, “ANTIBODY-BASED CONJUGATE FOR ENHANCING THERAPEUTIC EFFECT OF TARGETED THERAPEUTIC AGENT” (THE CATHOLIC UNIVERSITY OF KOREA INDUSTRY-ACADEMIC …, priority 2020, published 2024)

Assays:
NIH3T3 normal cells = assay type: cell-based; conditions: for toxicity: NIH3T3, at a concentration less than 10 μl/ml; for cytotoxicity: NIH3T3 normal cells, MTT, treated 4 hours then cultured 1 day
Protocol: (§3) Thereafter, the cells were washed with a buffer solution, and further cultured for 1 day by adding a clean medium thereto.
(§4) The cultured cells were treated with MTT reagent and further cultured for 3 hours, then the culture solution and the MTT reagent were both removed, and dimethyl sulfoxide was added to dissolve formazan formed in the cells. Thereafter, absorbance was measured at 570 nm to compare the amounts of formazan formed and analyze the viability and cytotoxicity of cancer cells.

L929 normal cells = assay type: cell-based; conditions: for toxicity: L929, at a concentration less than 10 μl/ml; for cytotoxicity: L929 normal cells, MTT, treated 4 hours then cultured 1 day
Protocol: as §3, §4

[1] = test system: A549 lung cancer cell line expressing PD-L1; assay type: cell-based
Protocol: (§1) Thereafter, the viability and cytotoxicity of cells were analyzed in the same manner as in Experimental Example 2-1.
(§2) Lung cancer and colorectal cancer cell lines expressing PD-L1 (A549 and HCT116, respectively) were cultured, and then treated with an avelumab-succinyl-Pluronic conjugate. Thereafter, the viability and cytotoxicity of cells were analyzed in the same manner as in Experimental Example 2-1.

[2] = test system: HCT116 (HCTE116) colorectal cancer cell line expressing PD-L1; assay type: cell-based
Protocol: as §1, §2

[3] = test system: SKOV3 cells, ovarian cell line expressing the EGFR
Protocol: as §3, §4

[4] = test system: NIH-3T3 cells (do not express EGFR); conditions: NIH-3T3, 2 hours, flow cytometer; non-specific inflow
Protocol: Thereafter, the cells were washed with a buffer solution and the targeting ability to each type of cell was analyzed by a flow cytometer.

| Substance | toxicity (NIH3T3 normal cells) | toxicity (L929 normal cells) | cytotoxicity (NIH3T3 normal cells) | cytotoxicity (L929 normal cells) | other results |
| --- | --- | --- | --- | --- | --- |
| avelumab-maleimide-Pluronic F68 [AVE-Mal-PF68] | non-toxic | non-toxic |  |  |  |
| avelumab-maleimide-Pluronic F127 [AVE-Mal-PF127] | non-toxic | non-toxic |  |  |  |
| avelumab-maleimide-polyethylene glycol 2K [AVE-Mal-PEG2K, reference compound] | non-toxic | non-toxic |  |  |  |
| avelumab-maleimide-polyethylene glycol 6K [AVE-Mal-PEG6K, reference compound] | non-toxic | non-toxic |  |  |  |
| avelumab-succinyl-Pluronic F68 [AVE-Suc-PF68] |  |  |  |  | cytotoxicity compared to avelumab antibody alone (AVE) or AVE-Suc-PEG2K/PEG5K [1]: greater increase in cytotoxicity; cytotoxicity compared to avelumab antibody alone (AVE) or AVE-Suc-PEG2K/PEG5K [2]: greater increase in cytotoxicity |
| avelumab-succinyl-Pluronic F127 [AVE-Suc-PF127] |  |  |  |  | cytotoxicity compared to avelumab antibody alone (AVE) or AVE-Suc-PEG2K/PEG5K [1]: greater increase in cytotoxicity; cytotoxicity compared to avelumab antibody alone (AVE) or AVE-Suc-PEG2K/PEG5K [2]: greater increase in cytotoxicity |
| maleimide-Pluronic F68 [Mal-PF68] |  |  |  |  | cytotoxicity [3]: non-cytotoxic |
| maleimide-Pluronic F68-chlorin e6 [Mal-PF68-Ce6] |  |  |  |  | fluorescence signals compared to CTX-Mal-PF68-Ce6 or CTX-Mal-PEG2K-Ce6 treatment group [4]: increased |
| maleimide-polyethylene glycol 2K-chlorin e6 [Mal-PEG2K-Ce6, reference compound] |  |  |  |  | fluorescence signals compared to CTX-Mal-PF68-Ce6 or CTX-Mal-PEG2K-Ce6 treatment group [4]: increased |
| ramucirumab-maleimide-Pluronic F68 [RAM-Mal-PF68] |  |  | non-toxic | non-toxic |  |
| ramucirumab-maleimide-Pluronic F127 [RAM-Mal-PF127] |  |  | non-toxic | non-toxic |  |
| ramucirumab-maleimide-polyethylene glycol 2K [RAM-Mal-PEG2K, reference compound] |  |  | non-toxic | non-toxic |  |
| ramucirumab-maleimide-polyethylene glycol 6K [RAM-Mal-PEG6K, reference compound] |  |  | non-toxic | non-toxic |  |
